In the RNAGym collection of RNA variant scans (doi:10.7554/elife.90254) one finds self-cleavage data, which are given here for 39 variants.

To fix the notation:
B1: LINE1-full (parent)
chain: UACGUAGGUGGUUUUCCCCUGAUAGUGCUAAGGGGGCCUGGAAGUUUGGACUGGGCAGAGCUCAACACAGCGUGGCAAAGUGGCUGUGGCUAGACUGCCUCUCUGGAUUCCUCGUCACUCAGCAGGGCAUCUCUGAGAGAAAUGCC

In this series the parent is B1. Briefly: self-cleavage, relative activity (ratio to wild type); higher = more cleavage; in vitro, sequencing; the parent is a self-cleaving ribozyme.
As to UACGUAGGUGGUUUUCCCCUGAUAGUGCUAAGGGGGCCUGGAAGUUUGGACUGGGCAGGGCUCAACACAGCGUGGCAAGGUGGCUGUGGCUAGACUGCCUCUCUGGAUUCCUCGUCACUCAGCAGGGCAUCUCUGAGAGAAAUGCC, the self-cleavage stood at 0.07.

For the variant UACGUAGGUGGUUUUCCCCUGAUAGUGCUAAGGGGGCCUGGAAGUUUGGACUGGGCAGGGCUCAACACAGCGUGGCAAAGUGGCUUUGGCUAGACUGCCUCUCUGGAUUCCUCGUCACUCAGCAGGGCAUCUCUGAGAGAAAUGCC, the self-cleavage is 0.03.

UACGUAGGUGGUUUUCCCCUGAUAGUGCUAAGGGGGCCUGGAAGUUUGGACUGGGCAGGGCUCAACACAGCGUGGCAAAGUGGCUAUGGCUAGACUGCCUCUCUGGAUUCCUCGUCACUCAGCAGGGCAUCUCUGAGAGAAAUGCC: the self-cleavage worked out at 0.07.

For the variant UACGUAGGUGGUUUUCCCCUGAUAGUGCUAAGGGGGCCUGGAAGUUUGGACUGGGCAGGGCUCAACACAGCGUGGCAAAGUGGCUGUGGCUAGACUGCCUCUCUGGAUUCCUCGUCACUCAGCAGGGCAUCUCUGAGAGAGAUGCC, the self-cleavage was found to be 0.08.

UACGUAGGUGGUUUUCCCCUGAUAGUGCUAAGGGGGCCUGGAAGUUUGGACUGGGCAGGGCUCAACACAGCGUGGCAAAGUGGCUGUGGCUAGACUGCCUCUCUGGAUUCCUCGUCACUCAGCAGGGCAUCUCUGAGAGAUAUGCC: the self-cleavage was found to be 0.2.

In the case of UACGUAGGUGGUUUUCCCCUGAUAGUGCUAAGGGGGCCUGGAAGUUUGGACUGGGCAGGGCUCAACACAGCGUGACAAAGUGGCUGUGGCUAGACUGCCUCUCUGGAUUCCUCGUCACUCAGCAGGGCAUCUCUGAGAGAAAUGCC, the self-cleavage is 0.04.

As to UACGUAGGUGGUUUUCCCCUGAUAGUGCUAAGGGGGCCUGGAAGUUUGGACUGGGCAGGGCUCAACACAGCGUGGCAAAGUGGCUGUGGCUAGACUGCCUCUCUGGAUUUCUCGUCACUCAGCAGGGCAUCUCUGAGAGAAAUGCC, the self-cleavage is 0.1.

Regarding UACGUAGGUGGUUUUCCCCUGAUAGUGCUAAGGGGGCCUGGAAGUUUGGACUGGGCAGGGCUCAACACAGAGUGGCAAAGUGGCUGUGGCUAGACUGCCUCUCUGGAUUCCUCGUCACUCAGCAGGGCAUCUCUGAGAGAAAUGCC, the self-cleavage is 0.06.

With UACGUAGGUGGUUUUCCCCUGAUAGUGCUAAGGGGGCCUGGAAGUUUGGACUGGGCAGGGCUCAACACAGCGUGGCAAAGUGGCUGUGGCUAGACUGCCUCUCUGGAUUCCUCGUCACUCAGCUGGGCAUCUCUGAGAGAAAUGCC, the self-cleavage was found to be 0.14.

As for UACGUAGGUGGUUUUCCCCUGAUAGUGCUAAGGGGGCCUGGAAGUUUGGACUGGGCAGGGCUCAACACACCGUGGCAAAGUGGCUGUGGCUAGACUGCCUCUCUGGAUUCCUCGUCACUCAGCAGGGCAUCUCUGAGAGAAAUGCC, the self-cleavage is 0.04.

As to UACGUAGGUGGUUUUCCCCUGAUAGUGCUAAGGGGGCCUGGAAGUUUGGACUGGGCAGGGCUCAACACAGCGUGGCAAAGUGGCUGUGGCUAGACUGCCUCUCUGGAUUCCUCGUCACUCAGCAGGGCAUCUCUGGGAGAAAUGCC, the self-cleavage stood at 0.07.

Consider UACGUAGGUGGUUUUCCCCUGAUAGUGCUAAGGGGGCCUGGAAGUUUGGACUGGGCAGGGCUCAACACAGCGUGGCAAAGUGGCUGUGGCUAGACUGCCUCUCUGGAUUCCUCGUCACUCGGCAGGGCAUCUCUGAGAGAAAUGCC, for which the self-cleavage was found to be 0.23.

On to UACGUAGGUGGUUUUCCCCUGAUAGUGCUAAGGGGGCCUGGAAGUUUGGACUGGGCAGGGCUCAACACAGCGUGGCAAAGUGGCUGUGGCUAGACUGCCUCUCUGGAUUCCUCGUCACUCCGCAGGGCAUCUCUGAGAGAAAUGCC, for which the self-cleavage turned out to be 0.09.

For UACGUAGGUGGUUUUCCCCUGAUAGUGCUAAGGGGGCCUGGAAGUUUGGACUGGGCAGGGCUCAACACAGCGUGGCAAAGUGGCUGUGGCUAGACUGCCUCUCUGGAUUCCUCGUCACUCUGCAGGGCAUCUCUGAGAGAAAUGCC, the self-cleavage turned out to be 0.08.

For UACGUAGGUGGUUUUCCCCUGAUAGUGCUAAGGGGGCCUGGAAGUUUGGACUGGGCAGGGCUCAACACAGCGUGGCAGAGUGGCUGUGGCUAGACUGCCUCUCUGGAUUCCUCGUCACUCAGCAGGGCAUCUCUGAGAGAAAUGCC, the self-cleavage turned out to be 0.06.

With UACGUAGGUGGUUUUCCCCUGAUAGUGCUAAGGGGGCCUGGAAGUUUGGACUGGGCAGGGCUUAACACAGCGUGGCAAAGUGGCUGUGGCUAGACUGCCUCUCUGGAUUCCUCGUCACUCAGCAGGGCAUCUCUGAGAGAAAUGCC, the self-cleavage was found to be 0.05.

As to UACGUAGGUGGUUUUCCCCUGAUAGUGCUAAGGGGGCCUGGAAGUUUGGACUGGGCAGGGCUCAACACAGCGUGGAAAAGUGGCUGUGGCUAGACUGCCUCUCUGGAUUCCUCGUCACUCAGCAGGGCAUCUCUGAGAGAAAUGCC, the self-cleavage turned out to be 0.08.

Take UACGUAGGUGGUUUUCCCCUGAUAGUGCUAAGGGGGCCUGGAAGUUUGGACUGGGCAGGGCUCAACACAGCGUGGCAAAGUGGCUGUGGCUAGACUGCCUCUCUGGAUUCCUCGUCACUCAGCAGGGCAUCUCUGAGAGAAAUGCU: the self-cleavage worked out at 0.12.

UACGUAGGUGGUUUUCCCCUGAUAGUGCUAAGGGGGCCUGGAAGUUUGGACUGGGCAGGGCUCAACACAGCGUGGCAAAGUGGCUGUGGCUAGACUGCCUCUCUGGAUUCCUCGUCAUUCAGCAGGGCAUCUCUGAGAGAAAUGCC: the self-cleavage came to 0.02.

Consider UACGUAGGUGGUUUUCCCCUGAUAGUGCUAAGGGGGCCUGGAAGUUUGGACUGGGCAGGGCUCAACACAGCGUGGCAAAGUGGCUGUGGCUAGACUGCCUCUCUGGAUUCCUCGUCACUCAGCAGGGCAUCUCUGAGUGAAAUGCC, for which the self-cleavage was determined as 0.12.

As to UACGUAGGUGGUUUUCCCCUGAUAGUGCUAAGGGGGCCUGGAAGUUUGGACUGGGCAGGGCUCAACACAGCGUGGCAAAGUGGCUGUGGCUAGACUGCCUCUCUGGAUUCCUCGUCACUCAGCAGGGCAUCUCUGAGAGUAAUGCC, the self-cleavage turned out to be 0.09.

With UACGUAGGUGGUUUUCCCCUGAUAGUGCUAAGGGGGCCUGGAAGUUUGGACUGGGCAGGGCUCAACACAGCGUGGCAAAGUGGCUGUGGCUAGACUGCCUCUCUGGAUUCCUCGUCACUCAGCAGGGCAUCUCUGAGAGGAAUGCC, the self-cleavage amounted to 0.09.

UACGUAGGUGGUUUUCCCCUGAUAGUGCUAAGGGGGCCUGGAAGUUUGGACUGGGCAGGGCUCAACACAGCGUGGCAAAGUAGCUGUGGCUAGACUGCCUCUCUGGAUUCCUCGUCACUCAGCAGGGCAUCUCUGAGAGAAAUGCC: the self-cleavage was 0.02.

As for UACGUAGGUGGUUUUCCCCUGAUAGUGCUAAGGGGGCCUGGAAGUUUGGACUGGGCAGGGCUCAACACAGCGUGGCAAAGUGGCUGUGGCUAGACUGCCUCUCUGGAUUCCUCGUUACUCAGCAGGGCAUCUCUGAGAGAAAUGCC, the self-cleavage was 0.07.

Consider UACGUAGGUGGUUUUCCCCUGAUAGUGCUAAGGGGGCCUGGAAGUUUGGACUGGGCAGGGCUCAACACAGCGUGGCAAAGUGGCUGUGGCUAGACUGCCUCUCUGGAUUCCUCGUAACUCAGCAGGGCAUCUCUGAGAGAAAUGCC, for which the self-cleavage was 0.04.

Take UACGUAGGUGGUUUUCCCCUGAUAGUGCUAAGGGGGCCUGGAAGUUUGGACUGGGCAGGGCUCAACACAGCGUGGCAAAGUGGCUGUGGCUAGACUGCCUCUCUGGAUUCCUCGUCACUCAGCAGGGCAUCUAUGAGAGAAAUGCC: the self-cleavage was 0.04.

As for UACGUAGGUGGUUUUCCCCUGAUAGUGCUAAGGGGGCCUGGAAGUUUGGACUGGGCAGGGCUCAACACAGCGUGGCAAAGUGGCUGUGGCUAGACUGCCUCUCUGGAUUCCUCGUCACUCAGCAGGGCAUCUUUGAGAGAAAUGCC, the self-cleavage came out at 0.08.

On to UACGUAGGUGGUUUUCCCCUGAUAGUGCUAAGGGGGCCUGGAAGUUUGGACUGGGCAGGGCUCAACACAGCGUGGCAAAGUGGCUGUGGCUAGACUGCCUCUCUGGAUUCCUCGUCACUCAGCAGGGCGUCUCUGAGAGAAAUGCC, for which the self-cleavage is 0.07.

Take UACGUAGGUGGUUUUCCCCUGAUAGUGCUAAGGGGGCCUGGAAGUUUGGACUGGGCAGGGCUCAACGCAGCGUGGCAAAGUGGCUGUGGCUAGACUGCCUCUCUGGAUUCCUCGUCACUCAGCAGGGCAUCUCUGAGAGAAAUGCC: the self-cleavage came out at 0.08.

Regarding UACGUAGGUGGUUUUCCCCUGAUAGUGCUAAGGGGGCCUGGAAGUUUGGACUGGGCAGGGCUCAACACGGCGUGGCAAAGUGGCUGUGGCUAGACUGCCUCUCUGGAUUCCUCGUCACUCAGCAGGGCAUCUCUGAGAGAAAUGCC, the self-cleavage stood at 0.1.

Regarding UACGUAGGUGGUUUUCCCCUGAUAGUGCUAAGGGGGCCUGGAAGUUUGGACUGGGCAGGGCUCAACACAGCGUGGCAAAGUGGCUGUGGCUAGAUUGCCUCUCUGGAUUCCUCGUCACUCAGCAGGGCAUCUCUGAGAGAAAUGCC, the self-cleavage was found to be 0.14.

With UACGUAGGUGGUUUUCCCCUGAUAGUGCUAAGGGGGCCUGGAAGUUUGGACUGGGCAGGGCUCAACACAGCGUGGCAAAGUGGCUGUGGCUAGACUGCCUCUCUGGAUUCCUCGUCUCUCAGCAGGGCAUCUCUGAGAGAAAUGCC, the self-cleavage turned out to be 0.08.

Consider UACGUAGGUGGUUUUCCCCUGAUAGUGCUAAGGGGGCCUGGAAGUUUGGACUGGGCAGGGGUCAACACAGCGUGGCAAAGUGGCUGUGGCUAGACUGCCUCUCUGGAUUCCUCGUCACUCAGCAGGGCAUCUCUGAGAGAAAUGCC, for which the self-cleavage came to 0.

Turning to UACGUAGGUGGUUUUCCCCUGAUAGUGCUAAGGGGGCCUGGAAGUUUGGACUGGGCAGGGCUCAACACAGCGUGGCAAAGUGGCUGUGGCUAGACUGCCUCUCUGGUUUCCUCGUCACUCAGCAGGGCAUCUCUGAGAGAAAUGCC, the self-cleavage came out at 0.04.

On to UACGUAGGUGGUUUUCCCCUGAUAGUGCUAAGGGGGCCUGGAAGUUUGGACUGGGCAGGGCUCAACACAGCGUGGCAAAGUGGCUGUGGCUAGGCUGCCUCUCUGGAUUCCUCGUCACUCAGCAGGGCAUCUCUGAGAGAAAUGCC, for which the self-cleavage worked out at 0.23.

As for UACGUAGGUGGUUUUCCCCUGAUAGUGCUAAGGGGGCCUGGAAGUUUGGACUGGGCAGGGCUCAACACAGCGUGGCAAAGUGGCUGUGGCUAGUCUGCCUCUCUGGAUUCCUCGUCACUCAGCAGGGCAUCUCUGAGAGAAAUGCC, the self-cleavage was found to be 0.07.

With UACGUAGGUGGUUUUCCCCUGAUAGUGCUAAGGGGGCCUGGAAGUUUGGACUGGGCAGGGCUCAACACAGCGUGGCAAAGUGGCUGUGGCUAGACUGCCUCUCUGGAUUCCUCGUCACUCAGCAGGGCAUCUCUGAGAGAAGUGCC, the self-cleavage was found to be 0.07.

Turning to UACGUAGGUGGUUUUCCCCUGAUAGUGCUAAGGGGGCCUGGAAGUUUGGACUGGGCAGGGCUCAACACAGCGUGGCAAAGUGGCUGUGGCUGGACUGCCUCUCUGGAUUCCUCGUCACUCAGCAGGGCAUCUCUGAGAGAAAUGCC, the self-cleavage is 0.04.

UACGUAGGUGGUUUUCCCCUGAUAGUGCUAAGGGGGCCUGGAAGUUUGGACUGGGCAGGGCUCAACACAGCGUGGCGAAGUGGCUGUGGCUAGACUGCCUCUCUGGAUUCCUCGUCACUCAGCAGGGCAUCUCUGAGAGAAAUGCC: the self-cleavage was determined as 0.15.
